From patent US20020098524A1 (published 2002) come the findings set out here.

By koff is commonly meant the rate constant with which the complex falls apart. The low end stands for slow dissociation, the high end for fast dissociation.

For one assay, the target named is T1, human (h)TNF-α (human, UniProt P01375 77-233).
T1 construct: Bought purified protein; also called TNF-alpha; Tumor Necrosis Factor α
T1 sequence (P01375 77-233 limits assumed): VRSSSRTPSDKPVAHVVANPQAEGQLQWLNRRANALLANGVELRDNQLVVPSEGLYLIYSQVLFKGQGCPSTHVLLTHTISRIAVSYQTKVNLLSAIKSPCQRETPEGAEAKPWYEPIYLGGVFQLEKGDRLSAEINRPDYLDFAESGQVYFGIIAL
In words: IAsys biosensor, dissociation in 10 mM HEPES/0.05% Tween. As for the experimental part: The binding and dissociation of phage clone A1, amino acid sequence: RYWQDIP; Table 1, (SEQ ID NO: 3) to TNF-α was monitored using an lAsys AutoPlus Biosensor following the Labsystems Affinity Sensors lAsys Protocol 2.4 ‘Immobilization to Protein Layer: Thiol coupling to avidin’ (Thermo BioAnalysis Corp. Franklin, Mass.). Two cuvettes were first coated with avidin and one (the control) was then blocked with biotin. This was followed by activation of the lysine groups. A 15 μl aliquot of a 1 mg/ml (h)TNF-α solution was added to each cuvette. […] After blocking and washing, phage clone A1, RYWQDIP (SEQ ID NO: 3) was added to give a final titer of 5×10¹¹ pfu/ml.
The dissociation of the phage from the TNF-α is very slow with the dissociation constant estimated as koff<10⁻⁴ sec⁻¹ (10 mM HEPES/0.05% Tween). Washing with a 1×buffer concentrate (at the 70 min time point) only removed a small portion of the phage.
Regarding RYWQDIP (also called T1; phage peptide clone A1) [phage clone A1, amino acid sequence RYWQDIP], the koff is less than 0.0001 s⁻¹.

For another assay, the target named is T1, human (h)TNF-α. In words: phage display selection on hTNF-α-coated tube, PCR of phage still bound after acid wash. Here is the method: A thin-walled PCR tube was coated with the target human (h)TNF-α (BioSource International; Camarillo, Calif.) by incubating 100 μl of 0.5 mg/ml purified TNF-α in PBS overnight at 4° C. in the PCR tube. Excess unbound TNF-α was removed, and the tube was coated overnight at 4° C. with 100 μl of SuperBlock™ blocking buffer (Pierce: Rockford, Ill.) in Tris buffered saline (TBS). The anti-target (SuperBlock™ blocking buffer) was prepared in separate PCR tubes coated overnight at 4° C. with 100 μl of SuperBlock™.
Unbound phage were removed by washing the tube 5 times with 150 μl PBS containing 0.1% Tween-20 at room temperature. Low affinity binders were washed away by incubating with 60 μl of 0.2 M Glycine (pH 2.2) for 6 minutes followed by neutralization with 9 μl M Tris-Cl (pH 9.1). The acid washed population was retained for further analysis. The tube was then washed again 3 times with 150 μl of PBS.
This was due to too much template (i.e. phage) in the PCR reaction, and can be alleviated by decreasing the phage concentration or by decreasing the number of PCR cycles (FIG. 3). To decrease the amount of the 500-700 bp diffuse band, the PCR product was diluted appropriately for subsequent PCR reactions from this starting material to generate more products for sub-cloning purposes.
On to WTPKPTQ [T4 (WTPKPTQ)], for which the binding result is listed as “binds”.

With THKNTLR [T10 (THKNTLR)], the binding result is given as “binds”.

Turning to LTQSFSS [T9 (LTQSFSS)], the binding result was “binds”.

For TMLPYRP [T7 (TMLPYRP)], the binding result was “binds”.

With QPLRKLP [T15 (QPLRKLP)], the binding result is reported as “binds”.

As for ATFPNQS [T5 (ATFPNQS)], the binding result is reported as “binds”.

In the case of DMIMVSI [T3 (DMIMVSI)], the binding result is reported as “binds”.

In the case of GQTHFHV [T11 (GQTHFHV)], the binding result is reported as “binds”.

For the molecule APEPILA [T2 (APEPILA)], the binding result is given as “binds”.

Take AWHSPSV [T8 (AWHSPSV)]: the binding result was “binds”.

As for LSQPIPI [T14 (LSQPIPI)], the binding result is given as “binds”.

In the case of ASTVGGL [T6 (ASTVGGL)], the binding result is listed as “binds”.

Consider SILPVSH [T13 (SILPVSH)], for which the binding result is listed as “binds”.

Take LPILTQT [T12 (LPILTQT)]: the binding result is reported as “binds”.
